The results in this text go back to patent US20080160018A1.

Assay [1] addresses human IL-2 receptor (p55 Tac protein) on HUT-102 cells (human) (UniProt P01589). As to the kind of experiment: cell-based or functional assay.
For assay [2], the target named is gH glycoprotein of cytomegalovirus on CMV-infected HEL cells (cytomegalovirus (CMV)) (UniProt P12824). As to the kind of experiment: immunostaining of CMV-infected HEL cells, 2-fold dilutions, HRP secondary.
Assay [3] addresses human IL-2 receptor (p55 Tac protein) on HUT-102 cells (human) (UniProt P01589). Nature of the assay: competition with radioiodinated mouse anti-Tac on HUT-102 cells.

Chain of human IL-2 receptor (p55 Tac protein) on HUT-102 cells (human) (P01589 22-272): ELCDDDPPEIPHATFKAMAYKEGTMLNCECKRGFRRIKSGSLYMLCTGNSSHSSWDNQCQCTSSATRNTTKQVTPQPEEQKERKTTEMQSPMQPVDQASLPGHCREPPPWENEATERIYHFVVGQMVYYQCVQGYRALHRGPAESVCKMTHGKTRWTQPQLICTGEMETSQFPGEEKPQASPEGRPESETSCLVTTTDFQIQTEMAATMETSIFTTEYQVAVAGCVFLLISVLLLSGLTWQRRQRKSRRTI

B1: mouse anti-Tac antibody (antibody, V domains shown)
VH: QVQLQQSGAELAKPGASVKMSCKASGYTFTSYRMHWVKQRPGQGLEWIGYINPSTGYTEYNQKFKDKATLTADKSSSTAYMQLSSLTFEDSAVYYCARGGGVFDYWGQGTTLTVSS
VL: QIVLTQSPAIMSASPGEKVTITCSASSSISYMHWFQQKPGTSPKLWIYTTSNLASGVPARFSGSGSGTSYSLTISRMEAEDAATYYCHQRSTYPLTFGSGTKLELK
For the molecule B1, in assay [1], the Percent 51Cr release after ADCC, effector:target ratio 30:1 was determined as 4% and the Percent 51Cr release after ADCC, effector:target ratio 100:1 was less than 1%.

B2: mouse CMV5 antibody (antibody, V domains shown)
VH: EVQLQQSGPELVKPGASMKISCKASVYSFTGYTMNWVKQSHGQNLEWIGLINPYNGGTSYNQKFKGKATLTVDKSSNTAYMELLSLTSADSAVYYCTRRGFRDYSMDYWGQGTSVTVSS
VL: DIVLTQSPATLSVTPGDSVSLSCRASQSISNNLHWYQQKSHESPRLLIKYASQSISGIPSRFSGSGSGTDFTLSVNGVETEDFGMYFCQQSNSWPHTFGGGTKLEIK
In the case of B2, in assay [2], the least amount of antibody that produced a detectable precipitate turned out to be 63 ng/mL.

B3: CDR-only humanized anti-Tac antibody (antibody, V domains shown)
VH: QVQLVQSGAEVKKPGSSVKVSCKASGGTFSSYRMHWVRQAPGQGLEWMGYINPSTGYTEYNQKFKDRVTITADESTNTAYMELSSLRSEDTAFYFCAGGGGVFDYEYNGGLVTVSS
VL: DIQMTQSPSTLSASVGDRVTITCSASSSISYMHWYQQKPGKAPKLLMYTTSNLASGVPSRFIGSGSGTEFTLTISSLQPDDFATYYCHQRSTYPLTFGQGTKVEVK
As to B3, in assay [3], the fold reduction of binding affinity compared to the PDL humanized anti-Tac antibody was greater than 100 fold.
